Measured values reported in CN112552406A (WUJIANG NOVOPROTEIN SCIENT INC, dated 2021).

T1: 人CD73 on SK-OV-3细胞 (人卵巢腺癌细胞) (human, UniProt P21589 27-549)
T1 construct: whole, on cells; CD73-positive human cell line; also called SK-OV-3细胞上CD73; 人CD73阳性细胞
T1 sequence (looked up): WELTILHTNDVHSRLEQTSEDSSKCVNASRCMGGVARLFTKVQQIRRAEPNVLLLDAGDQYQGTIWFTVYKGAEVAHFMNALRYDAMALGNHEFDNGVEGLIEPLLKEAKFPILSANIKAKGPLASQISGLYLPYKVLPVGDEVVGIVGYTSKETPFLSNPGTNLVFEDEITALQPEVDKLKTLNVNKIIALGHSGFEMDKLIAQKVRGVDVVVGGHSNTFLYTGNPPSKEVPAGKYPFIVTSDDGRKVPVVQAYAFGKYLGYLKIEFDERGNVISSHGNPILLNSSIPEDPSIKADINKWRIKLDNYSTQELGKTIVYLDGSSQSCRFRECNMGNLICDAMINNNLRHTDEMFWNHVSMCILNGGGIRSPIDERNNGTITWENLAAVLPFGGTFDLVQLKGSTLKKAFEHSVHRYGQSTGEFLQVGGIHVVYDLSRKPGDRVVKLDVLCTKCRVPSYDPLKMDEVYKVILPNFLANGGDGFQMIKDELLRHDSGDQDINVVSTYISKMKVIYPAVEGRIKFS

T2: 猴CD73全长 on CHOK1-cynoCD73细胞 (猴 (cyno), UniProt A0A2K5V5U7 27-549)
T2 construct: whole, on cells; also called 猴CD73阳性细胞
T2 sequence: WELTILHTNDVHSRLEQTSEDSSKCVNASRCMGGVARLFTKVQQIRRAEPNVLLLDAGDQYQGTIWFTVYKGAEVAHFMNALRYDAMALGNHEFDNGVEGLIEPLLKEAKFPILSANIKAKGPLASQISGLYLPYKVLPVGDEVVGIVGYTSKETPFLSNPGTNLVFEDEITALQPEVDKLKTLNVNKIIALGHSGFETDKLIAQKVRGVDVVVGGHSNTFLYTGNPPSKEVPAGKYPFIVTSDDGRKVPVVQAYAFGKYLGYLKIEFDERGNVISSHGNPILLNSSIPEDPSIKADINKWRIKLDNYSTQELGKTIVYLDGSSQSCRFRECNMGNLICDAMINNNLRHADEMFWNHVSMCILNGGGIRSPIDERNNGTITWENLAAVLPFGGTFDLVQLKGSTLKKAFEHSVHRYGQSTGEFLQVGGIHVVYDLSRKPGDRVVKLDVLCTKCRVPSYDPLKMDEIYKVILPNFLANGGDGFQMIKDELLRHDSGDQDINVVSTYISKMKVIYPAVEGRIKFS

T3: 重组猴CD73蛋白 (猴 (monkey; cyno per the cell line name), UniProt A0A2K5V5U7 27-547)
T3 sequence: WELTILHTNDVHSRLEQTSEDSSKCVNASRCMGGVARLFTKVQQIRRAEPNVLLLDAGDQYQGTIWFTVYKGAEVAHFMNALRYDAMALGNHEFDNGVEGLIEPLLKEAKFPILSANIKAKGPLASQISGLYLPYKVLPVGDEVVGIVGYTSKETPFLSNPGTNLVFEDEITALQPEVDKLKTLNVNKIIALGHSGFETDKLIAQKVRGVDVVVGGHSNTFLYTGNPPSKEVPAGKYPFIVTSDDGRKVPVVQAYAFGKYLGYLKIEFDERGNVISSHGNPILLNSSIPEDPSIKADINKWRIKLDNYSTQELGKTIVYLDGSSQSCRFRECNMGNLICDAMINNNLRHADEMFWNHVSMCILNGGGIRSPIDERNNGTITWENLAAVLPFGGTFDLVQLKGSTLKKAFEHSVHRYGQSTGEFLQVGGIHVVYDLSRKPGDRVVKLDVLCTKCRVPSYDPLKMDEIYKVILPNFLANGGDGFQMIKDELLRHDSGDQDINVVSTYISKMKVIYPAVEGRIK

T4: 重组人CD73蛋白 (human, UniProt P21589 27-547)
T4 construct: also called rhCD73; 重组hCD73蛋白
T4 sequence (looked up): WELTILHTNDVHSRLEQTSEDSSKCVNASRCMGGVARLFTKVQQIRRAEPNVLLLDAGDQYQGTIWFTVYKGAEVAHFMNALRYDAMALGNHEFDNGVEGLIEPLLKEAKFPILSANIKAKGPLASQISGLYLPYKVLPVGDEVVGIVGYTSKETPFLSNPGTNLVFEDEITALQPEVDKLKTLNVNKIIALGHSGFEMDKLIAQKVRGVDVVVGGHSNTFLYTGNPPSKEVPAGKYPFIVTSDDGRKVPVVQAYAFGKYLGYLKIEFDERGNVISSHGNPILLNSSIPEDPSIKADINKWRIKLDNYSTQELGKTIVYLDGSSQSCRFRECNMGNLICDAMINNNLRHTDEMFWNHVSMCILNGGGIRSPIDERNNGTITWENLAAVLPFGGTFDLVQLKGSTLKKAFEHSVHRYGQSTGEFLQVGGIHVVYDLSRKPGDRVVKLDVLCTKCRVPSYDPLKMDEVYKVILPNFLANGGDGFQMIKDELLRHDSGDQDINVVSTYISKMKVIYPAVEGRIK


Columns and labels:
[1] = biological target: T1, 人CD73 on SK-OV-3细胞 (人卵巢腺癌细胞); experiment: flow cytometry on SK-OV-3 cells, Anti-hFC-APC detection
[2] = biological target: T2, 猴CD73全长 on CHOK1-cynoCD73细胞; experiment: flow cytometry on CHOK1-cynoCD73 cells, Anti-hFC-APC detection
[3] = biological target: T1, 人CD73 on SK-OV-3细胞 (人卵巢腺癌细胞); experiment: flow cytometry on SK-OV-3 cells
[4] = biological target: T1, 人CD73 on SK-OV-3细胞 (人卵巢腺癌细胞); experiment: cell-based or functional assay
[5] = biological target: T2, 猴CD73全长 on CHOK1-cynoCD73细胞; experiment: cell-based or functional assay
[6] = biological target: T3, 重组猴CD73蛋白; experiment: ELISA, recombinant monkey CD73 coated at 3μg/ml
[7] = biological target: T4, 重组人CD73蛋白; experiment: Biacore (SPR), CQ137 immobilised, CD73 protein 2.5nM-40nM

| Binder | EC50 [1] [ng/mL] | EC50 [2] [ng/mL] | binding result [3] | other results |
| --- | --- | --- | --- | --- |
| MEDI-9447 (antibody, V domains shown) VH: EVQLLESGGGLVQPGGSLRLSCAASGFTFSSYAYSWVRQAPGKGLEWVSAISGSGGRTYYADSVKGRFTISRDNSKNTLYLQMNSLRAEDTAVYYCARLGYGRVDEWGRGTLVTVSS VL: QSVLTQPPSASGTPGQRVTISCSGSLSNIGRNPVNWYQQLPGTAPKLLIYLDNLRLSGVPDRFSGSKSGTSASLAISGLQSEDEADYYCATWDDSHPGWTFGGGTKLTVLG | 9.63 | 4.12 |  |  |
| 人源化CQ137单抗(137-2) (antibody, V domains shown, also called hCQ137) VH: QVQLVQSGAEVKKPGASVKVSCKASGYSFTGYYIHWVRQAPGQGLEWMGRINPYNGATTYNQNFKDRVTMTVDKSTSTAYMELRSLRSDDTAVYYCARFHYGAPDYWGQGTLVTVSS VL: DIQMTQSPSSLSASVGDRVTITCKASQDINTYLTWFQQKPGKAPKSLIYRANILVDGVPSRFSGSGSGTDFTLTISSLQPEDFATYYCLQYDEFPLTFGGGTKVEIKR |  |  | binds |  |

Second part, led by results:

| EC50 [1] [ng/mL] | EC50 [2] [ng/mL] | binding result [3] | Binder | other results |
| --- | --- | --- | --- | --- |
|  |  | binds | 人源化CQ137单抗(137-1) (antibody, V domains shown, also called hCQ137) VH: QVQLVQSGAEVKKPGASVKVSCKASGYTFTGYYIHWVRQAPGQGLEWMGRINPYNGATTYNQNFKDRVTMTVDKSTSTAYMELRSLRSDDTAVYYCARFHYGAPDYWGQGTLVTVSS VL: DIQMTQSPSSLSASVGDRVTITCKASQDINTYLTWFQQKPGKAPKTLIYRANILVDGVPSRFSGSGSGQDYTLTISSLQPEDFATYYCLQYDEFPLTFGGGTKVEIKR |  |
|  |  | binds | 人源化CQ137单抗(137-3) (antibody, V domains shown, also called hCQ137) VH: QVQLVQSGAEVKKPGSSVKVSCKASGYSFTGYYIHWVRQAPGQGLEWMGRINPYNGATTYNQNFKDRVTITVDKSTSTAYMELSSLRSEDTAVYYCARFHYGAPDYWGQGTLVTVSS VL: DIQMTQSPSSLSASVGDRVTITCKASQDINTYLTWYQQKPGKAPKTLIYRANILVDGVPSRFSGSGSGTDFTLTISSLQPEDFATYYCLQYDEFPLTFGGGTKVEIKR |  |
| 0.588 | 0.0999 |  | CQ137抗体蛋白 (人鼠嵌合的抗CD73全长抗体) (antibody, human IgG1, kappa, V domains shown) VH: EVQLQQSGPELVKPGASVKISCKASGYSFTGYYIHWVKQSHVKSLEWIGRINPYNGATTYNQNFKDKASLTVDKSSSTAYMELHSLTSEDSAVYYCARFHYGAPDYWGQGTTLTVSS VL: DILMTQSPSSMYASLGERVTITCKASQDINTYLTWFQQKPGKSPKTLIYRANILVDGVPSRFSGSGSGQDYSLTISSLEFEDMGIYYCLQYDEFPLTFGAGTKLELKR | IC50, SK-OV-3细胞上CD73酶活抑制 (CellTiter-Glo) [4]: 371 ng/mL; IC50, CHOK1-cynoCD73细胞上CD73酶活抑制 (CellTiter-Glo) [5]: 990 ng/mL; EC50 [6]: 217 ng/mL; Kd [7]: 86.5 pM |
